Experimental data from US20200297818A1 (ZEALAND PHARMA A S, published 2020).

T1: human GLP-2 receptor (hGLP2-R) (human, UniProt O95838 1-553)
T1 sequence (looked up): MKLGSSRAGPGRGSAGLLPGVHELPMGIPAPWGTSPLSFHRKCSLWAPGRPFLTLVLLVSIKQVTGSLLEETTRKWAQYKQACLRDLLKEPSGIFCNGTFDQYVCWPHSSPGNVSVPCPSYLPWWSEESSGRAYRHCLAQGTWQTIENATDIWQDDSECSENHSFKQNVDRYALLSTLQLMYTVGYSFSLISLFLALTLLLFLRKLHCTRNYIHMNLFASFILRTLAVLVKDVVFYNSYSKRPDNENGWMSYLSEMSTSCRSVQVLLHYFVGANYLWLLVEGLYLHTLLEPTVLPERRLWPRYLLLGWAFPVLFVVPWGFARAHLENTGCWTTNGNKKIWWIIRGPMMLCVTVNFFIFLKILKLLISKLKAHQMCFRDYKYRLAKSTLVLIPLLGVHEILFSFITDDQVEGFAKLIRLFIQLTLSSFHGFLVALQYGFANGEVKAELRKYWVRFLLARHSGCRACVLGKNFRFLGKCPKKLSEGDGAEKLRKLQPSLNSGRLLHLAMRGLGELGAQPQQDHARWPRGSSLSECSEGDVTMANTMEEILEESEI


What was measured:
[1] = target: T1, human GLP-2 receptor (hGLP2-R); assay: cell-based or functional assay
[2] = target: human glucagon-like peptide 1 receptor (GLP-1 R) (human, UniProt P43220 24-463); assay: cell-based or functional assay

EC50 GLP-2 (nM); cAMP response [1]	EC50 GLP-1 (nM); cAMP response [2]	Binder
0.083 nM	0.49 nM	HXDGSFSSELATILDXQAARDFIAWLIQHKITD (HELM PEPTIDE1{H.[Aib].D.G.S.F.S.S.E.L.A.T.I.L.D.K.Q.A.A.R.D.F.I.A.W.L.I.Q.H.K.I.T.D}|PEPTIDE2{[O=C(O)CCCCCCCCCCCCCCCCC(=O)[*:2]].[gGlu]}$PEPTIDE1,PEPTIDE2,16:R3-2:R2$$$V2.0; SMILES CC[C@H](C)[C@H](NC(=O)[C@H](Cc1ccccc1)NC(=O)[C@H](CC(=O)O)NC(=O)[C@H](CCCNC(=N)N)NC(=O)[C@H](C)NC(=O)[C@H](C)NC(=O)[C@H](CCC(N)=O)NC(=O)[C@H](CCCCNC(=O)CC[C@H](NC(=O)CCCCCCCCCCCCCCCCC(=O)O)C(=O)O)NC(=O)[C@H](CC(=O)O)NC(=O)[C@H](CC(C)C)NC(=O)[C@@H](NC(=O)[C@@H](NC(=O)[C@H](C)NC(=O)[C@H](CC(C)C)NC(=O)[C@H](CCC(=O)O)NC(=O)[C@H](CO)NC(=O)[C@H](CO)NC(=O)[C@H](Cc1ccccc1)NC(=O)[C@H](CO)NC(=O)CNC(=O)[C@H](CC(=O)O)NC(=O)C(C)(C)NC(=O)[C@@H](N)Cc1c[nH]cn1)[C@@H](C)O)[C@@H](C)CC)C(=O)N[C@@H](C)C(=O)N[C@@H](Cc1c[nH]c2ccccc12)C(=O)N[C@@H](CC(C)C)C(=O)N[C@H](C(=O)N[C@@H](CCC(N)=O)C(=O)N[C@@H](Cc1c[nH]cn1)C(=O)N[C@@H](CCCCN)C(=O)N[C@H](C(=O)N[C@H](C(=O)N[C@@H](CC(=O)O)C(=O)O)[C@@H](C)O)[C@@H](C)CC)[C@@H](C)CC) [reference compound A]
0.24 nM	0.13 nM	HXEGTFTSELATILDXQAARDFIAWLIAHKITD (HELM PEPTIDE1{H.[Aib].E.G.T.F.T.S.E.L.A.T.I.L.D.K.Q.A.A.R.D.F.I.A.W.L.I.A.H.K.I.T.D}|PEPTIDE2{[O=C(O)CCCCCCCCCCCCCCCCC(=O)[*:2]].[gGlu]}$PEPTIDE1,PEPTIDE2,16:R3-2:R2$$$V2.0; SMILES CC[C@H](C)[C@H](NC(=O)[C@H](CC(C)C)NC(=O)[C@H](Cc1c[nH]c2ccccc12)NC(=O)[C@H](C)NC(=O)[C@@H](NC(=O)[C@H](Cc1ccccc1)NC(=O)[C@H](CC(=O)O)NC(=O)[C@H](CCCNC(=N)N)NC(=O)[C@H](C)NC(=O)[C@H](C)NC(=O)[C@H](CCC(N)=O)NC(=O)[C@H](CCCCNC(=O)CC[C@H](NC(=O)CCCCCCCCCCCCCCCCC(=O)O)C(=O)O)NC(=O)[C@H](CC(=O)O)NC(=O)[C@H](CC(C)C)NC(=O)[C@@H](NC(=O)[C@@H](NC(=O)[C@H](C)NC(=O)[C@H](CC(C)C)NC(=O)[C@H](CCC(=O)O)NC(=O)[C@H](CO)NC(=O)[C@@H](NC(=O)[C@H](Cc1ccccc1)NC(=O)[C@@H](NC(=O)CNC(=O)[C@H](CCC(=O)O)NC(=O)C(C)(C)NC(=O)[C@@H](N)Cc1c[nH]cn1)[C@@H](C)O)[C@@H](C)O)[C@@H](C)O)[C@@H](C)CC)[C@@H](C)CC)C(=O)N[C@@H](C)C(=O)N[C@@H](Cc1c[nH]cn1)C(=O)N[C@@H](CCCCN)C(=O)N[C@H](C(=O)N[C@H](C(=O)N[C@@H](CC(=O)O)C(=O)O)[C@@H](C)O)[C@@H](C)CC) [Compound 23]
0.2 nM	0.23 nM	HXEGSFTSELATILDXQAARDFIAWLIAHKITD (HELM PEPTIDE1{H.[Aib].E.G.S.F.T.S.E.L.A.T.I.L.D.K.Q.A.A.R.D.F.I.A.W.L.I.A.H.K.I.T.D}|PEPTIDE2{[O=C(O)CCCCCCCCCCCCCCCCC(=O)[*:2]].[gGlu]}$PEPTIDE1,PEPTIDE2,16:R3-2:R2$$$V2.0; SMILES CC[C@H](C)[C@H](NC(=O)[C@H](CC(C)C)NC(=O)[C@H](Cc1c[nH]c2ccccc12)NC(=O)[C@H](C)NC(=O)[C@@H](NC(=O)[C@H](Cc1ccccc1)NC(=O)[C@H](CC(=O)O)NC(=O)[C@H](CCCNC(=N)N)NC(=O)[C@H](C)NC(=O)[C@H](C)NC(=O)[C@H](CCC(N)=O)NC(=O)[C@H](CCCCNC(=O)CC[C@H](NC(=O)CCCCCCCCCCCCCCCCC(=O)O)C(=O)O)NC(=O)[C@H](CC(=O)O)NC(=O)[C@H](CC(C)C)NC(=O)[C@@H](NC(=O)[C@@H](NC(=O)[C@H](C)NC(=O)[C@H](CC(C)C)NC(=O)[C@H](CCC(=O)O)NC(=O)[C@H](CO)NC(=O)[C@@H](NC(=O)[C@H](Cc1ccccc1)NC(=O)[C@H](CO)NC(=O)CNC(=O)[C@H](CCC(=O)O)NC(=O)C(C)(C)NC(=O)[C@@H](N)Cc1c[nH]cn1)[C@@H](C)O)[C@@H](C)O)[C@@H](C)CC)[C@@H](C)CC)C(=O)N[C@@H](C)C(=O)N[C@@H](Cc1c[nH]cn1)C(=O)N[C@@H](CCCCN)C(=O)N[C@H](C(=O)N[C@H](C(=O)N[C@@H](CC(=O)O)C(=O)O)[C@@H](C)O)[C@@H](C)CC) [Compound 22]

Second part, the binder before the results:

Binder	EC50 GLP-2 (nM); cAMP response [1]	EC50 GLP-1 (nM); cAMP response [2]
HXEGTFTSELATILDXQAARDFIAWLIQHKITD (HELM PEPTIDE1{H.[Aib].E.G.T.F.T.S.E.L.A.T.I.L.D.K.Q.A.A.R.D.F.I.A.W.L.I.Q.H.K.I.T.D}|PEPTIDE2{[O=C(O)CCCCCCCCCCCCCCCCC(=O)[*:2]].[gGlu]}$PEPTIDE1,PEPTIDE2,16:R3-2:R2$$$V2.0; SMILES CC[C@H](C)[C@H](NC(=O)[C@H](Cc1ccccc1)NC(=O)[C@H](CC(=O)O)NC(=O)[C@H](CCCNC(=N)N)NC(=O)[C@H](C)NC(=O)[C@H](C)NC(=O)[C@H](CCC(N)=O)NC(=O)[C@H](CCCCNC(=O)CC[C@H](NC(=O)CCCCCCCCCCCCCCCCC(=O)O)C(=O)O)NC(=O)[C@H](CC(=O)O)NC(=O)[C@H](CC(C)C)NC(=O)[C@@H](NC(=O)[C@@H](NC(=O)[C@H](C)NC(=O)[C@H](CC(C)C)NC(=O)[C@H](CCC(=O)O)NC(=O)[C@H](CO)NC(=O)[C@@H](NC(=O)[C@H](Cc1ccccc1)NC(=O)[C@@H](NC(=O)CNC(=O)[C@H](CCC(=O)O)NC(=O)C(C)(C)NC(=O)[C@@H](N)Cc1c[nH]cn1)[C@@H](C)O)[C@@H](C)O)[C@@H](C)O)[C@@H](C)CC)C(=O)N[C@@H](C)C(=O)N[C@@H](Cc1c[nH]c2ccccc12)C(=O)N[C@@H](CC(C)C)C(=O)N[C@H](C(=O)N[C@@H](CCC(N)=O)C(=O)N[C@@H](Cc1c[nH]cn1)C(=O)N[C@@H](CCCCN)C(=O)N[C@H](C(=O)N[C@H](C(=O)N[C@@H](CC(=O)O)C(=O)O)[C@@H](C)O)[C@@H](C)CC)[C@@H](C)CC) [Compound 19]	0.23 nM	0.066 nM
HXEGTFSSELATILDXQAARDFIAWLIEHKITD (HELM PEPTIDE1{H.[Aib].E.G.T.F.S.S.E.L.A.T.I.L.D.K.Q.A.A.R.D.F.I.A.W.L.I.E.H.K.I.T.D}|PEPTIDE2{[O=C(O)CCCCCCCCCCCCCCCCC(=O)[*:2]].[gGlu]}$PEPTIDE1,PEPTIDE2,16:R3-2:R2$$$V2.0; SMILES CC[C@H](C)[C@H](NC(=O)[C@H](Cc1ccccc1)NC(=O)[C@H](CC(=O)O)NC(=O)[C@H](CCCNC(=N)N)NC(=O)[C@H](C)NC(=O)[C@H](C)NC(=O)[C@H](CCC(N)=O)NC(=O)[C@H](CCCCNC(=O)CC[C@H](NC(=O)CCCCCCCCCCCCCCCCC(=O)O)C(=O)O)NC(=O)[C@H](CC(=O)O)NC(=O)[C@H](CC(C)C)NC(=O)[C@@H](NC(=O)[C@@H](NC(=O)[C@H](C)NC(=O)[C@H](CC(C)C)NC(=O)[C@H](CCC(=O)O)NC(=O)[C@H](CO)NC(=O)[C@H](CO)NC(=O)[C@H](Cc1ccccc1)NC(=O)[C@@H](NC(=O)CNC(=O)[C@H](CCC(=O)O)NC(=O)C(C)(C)NC(=O)[C@@H](N)Cc1c[nH]cn1)[C@@H](C)O)[C@@H](C)O)[C@@H](C)CC)C(=O)N[C@@H](C)C(=O)N[C@@H](Cc1c[nH]c2ccccc12)C(=O)N[C@@H](CC(C)C)C(=O)N[C@H](C(=O)N[C@@H](CCC(=O)O)C(=O)N[C@@H](Cc1c[nH]cn1)C(=O)N[C@@H](CCCCN)C(=O)N[C@H](C(=O)N[C@H](C(=O)N[C@@H](CC(=O)O)C(=O)O)[C@@H](C)O)[C@@H](C)CC)[C@@H](C)CC) [Compound 20]	0.37 nM	0.55 nM
HXEGTFSSELATILDXQAARDFIAWLIAHKITD (HELM PEPTIDE1{H.[Aib].E.G.T.F.S.S.E.L.A.T.I.L.D.K.Q.A.A.R.D.F.I.A.W.L.I.A.H.K.I.T.D}|PEPTIDE2{[O=C(O)CCCCCCCCCCCCCCCCC(=O)[*:2]].[gGlu]}$PEPTIDE1,PEPTIDE2,16:R3-2:R2$$$V2.0; SMILES CC[C@H](C)[C@H](NC(=O)[C@H](CC(C)C)NC(=O)[C@H](Cc1c[nH]c2ccccc12)NC(=O)[C@H](C)NC(=O)[C@@H](NC(=O)[C@H](Cc1ccccc1)NC(=O)[C@H](CC(=O)O)NC(=O)[C@H](CCCNC(=N)N)NC(=O)[C@H](C)NC(=O)[C@H](C)NC(=O)[C@H](CCC(N)=O)NC(=O)[C@H](CCCCNC(=O)CC[C@H](NC(=O)CCCCCCCCCCCCCCCCC(=O)O)C(=O)O)NC(=O)[C@H](CC(=O)O)NC(=O)[C@H](CC(C)C)NC(=O)[C@@H](NC(=O)[C@@H](NC(=O)[C@H](C)NC(=O)[C@H](CC(C)C)NC(=O)[C@H](CCC(=O)O)NC(=O)[C@H](CO)NC(=O)[C@H](CO)NC(=O)[C@H](Cc1ccccc1)NC(=O)[C@@H](NC(=O)CNC(=O)[C@H](CCC(=O)O)NC(=O)C(C)(C)NC(=O)[C@@H](N)Cc1c[nH]cn1)[C@@H](C)O)[C@@H](C)O)[C@@H](C)CC)[C@@H](C)CC)C(=O)N[C@@H](C)C(=O)N[C@@H](Cc1c[nH]cn1)C(=O)N[C@@H](CCCCN)C(=O)N[C@H](C(=O)N[C@H](C(=O)N[C@@H](CC(=O)O)C(=O)O)[C@@H](C)O)[C@@H](C)CC) [Compound 21]	0.27 nM	1.8 nM
